The results in this text go back to paper doi:10.1101/2020.01.08.898262 (bioRxiv, 2020).

The data set concerns the molecule itself. The data set is described as follows: crystal structure.

B1: Salmonella typhi outer membrane phospholipase A (OmpLA), leaderless (21Q-289F) (enzyme)
chain: QEATIKEVHDAPAVRGSIIANMLQEHDNPFTLYPYDTNYLIYTNTSDLNKEAISTYNWSENARKDEVKFQLSLAFPLWRGILGPNSVLGASYTQKSWWQLSNSKESSPFRETNYEPQLFLGFATDYRFAGWTLRDVEMGYNHDSNGRSDPTSRSWNRLYTRLMAENGNWLVEVKPWYVIGSTDDNPDITKYMGYYQLKIGYHLGEAVLSAKGQYNWNTGYGGAEVGLSYPVTKHVRLYTQVYSGYGESLIDYNFNQTRVGVGVMLNDIF
On to B1, for which the binding result is “binds”.
